US20200190209A1 (BLACK BELT THERAPEUTICS, published 2020)
“And” between values parts separate entries of the source, which are not always exact repeats. Equal values may be shown once.

How the values were obtained:
[1] = target: T1, human CD38 (full length, on cells) (human, UniProt P28907 1-300); assay: cell-based or functional assay
[2] = target: T1, human CD38 (full length, on cells); assay: flow cytometry, binding to Daudi cells
[3] = target: T2, recombinant human CD38 his tagged (extracellular domain) (human, UniProt P28907 43-300); assay: SPR Biacore 2000; IgG1 captured, rhCD38-his as analyte
T2 construct: also called rhCD38; rhCD38-his; not shown: Histidine tag

[4] = target: T1, human CD38 (full length, on cells); assay: cell-based or functional assay; remark: listed apart in the source
[5] = target: T2, recombinant human CD38 his tagged …; assay: SPR Biacore affinity, rhCD38-his
Method: Anti-human antibody was initially immobilised across all flow cells in analysis buffer (pH 7.4, 10mM HEPES, 150mM NaCl, 3mM EDTA, 0.05% Tween 20) to an RU of between 12,000-14,000 over 10 minutes. […] Dissociation was performed in analysis buffer over 10 minutes. Regeneration steps between sample concentrations were performed in 3M MgCl₂, three times for 0.5 minutes. A flow rate of 25 μl/min was maintained throughout the process. Kinetics data were fit using a global fit on the analysis software provided by Biacore with reference subtraction.

[6] = target: T2, recombinant human CD38 his tagged …; assay: summary, human CD38 extracellular protein
[7] = target: T2, recombinant human CD38 his tagged …; assay: Octet BLI, affinity, monovalent human CD38-HIS; IgG1
[8] = target: T2, recombinant human CD38 his tagged …; assay: Octet BLI affinity, rhCD38; Octet value of Table 5 (variant comparison); Table 1A gives 3.38E-09 for IgG1

B1: aCD38-b-329 (human IgG1) (antibody, V domains shown)
VH: QLQLQESGPGLVKPSETLSLTCTVSGGSISSSDYYWGWIRQPPGKGLEWIGSIYYSGSTYYNPSLKSRVTISVDTSKNQFSLKLSSVTAADTAVYYCARGQYSSGWYAYPFDMWGQGTMVTVSS
VL: EIVLTQSPGTLSLSPGERATLSCRASQSVRSSYLAWYQQKPGQAPRLLIYGASSRATGIPDRFSGSGSGTDFTLTISRLEPEDFAVYYCQQDGAVFTFGGGTKVEIK
notes: Human IgG1
[1]
  ADCC target lysis EC50: 6.2 ng/mL
  ADCC target lysis, max. % lysis: 49%
[2]
  EC50: 734 ng/mL
  Max MFI: 2510 MFI
[3]
  Kd: 0.62 nM
[4]
  ADCC EC50, Daudi target cells: 11 ng/mL and 6.2 ng/mL
[5]
  Kd: 0.62 nM
[6]
  Kd: ~1 nM
[7]
  Kd: 3.38 nM
[8]
  Kd: 2.38 nM
